Assay results: patent publication US7678386B2, “Liposomes coated with selected antibodies that bind to aminophospholipids” (Board of Regents the University of Texas, priority 2002, dated 2010)
Several values for one entry are separate records, joined by “and”; a condition that tells them apart may be missing. Equal values may be shown once.

Assay: Monoclonal single chain antibody ELISA on PS plate
Type: binding
Details: supernatants of individual subclones, 10% human serum
Experimental: Individual HB2151 colonies from the plates (after 4 rounds of selection) were inoculated into 500 μl 2×TY containing 100 μg/ml ampicillin and 1% glucose in 96-well plates and grown with shaking (300 rpm.) overnight at 37° C. 5 μl from this plate were transferred to a second 96-well plate containing 500 μl 2×TY containing 100 μg/ml ampicillin per well and grown shaking at 37° C. for 3 hr (OD600=0.9).
To each well was added 50 μl 2×TY containing 100 μg/ml ampicillin, 10 mM IPTG (final concentration is 1 mM), which was grown with shaking overnight at 30° C. It was centrifuged at 1,800 g for 10 min and 100 μl of the supernatant used in the following ELISA.
96 well plates (DYNEX IMMULON®1B) were coated with PS dissolved in ethanol at a concentration of 10 μg/ml (P6641 10 mg/ml solvent was Chloroform:MeOH 95:5). 10 μg/ml PC was coated in the same way. These plates were evaporated at 4° C. in the cold room. 250 μl 2.5% casein was added to each well, and the plates were covered and blocked at 37° C. for 1 hour.
Wells were rinsed 3 times with PBS, 100 μl/well 10% human serum and 100 μl/well supernatant containing soluble scFv was added and incubated for 60 min at 37° C. The solution was discarded and washed 6 times with PBS. […] 100 μl 0.18 M H2SO4 was added to stop the reaction and read at O.D. 490.

B1: 3A2: scFv anti-PS clone; sequences SEQ ID NO:5 and SEQ ID NO:6 (protein)
scFv: AQPAMAEVQLVESGGGVVQPGRSLRLSCAASGFTFSSYGMHWVRQAPGKGLEWVAVISYDGSNKYYADSVKGRFTISRDNSKNTLYLQMNSLRAEDTAVYYCARLHAQTWGQGTLVTVSSGGGGSGGGGSGGSALQSVLTQPPSVSAAPGQKVTISCSGSSSDMGNYAVSWYQQLPGTAPKLLIYENNKRPSGIPDRFSGSKSGTSATLGITGLWPEDEADYYCLAWDTSPRNVFGGGTKLTVLGAAAHHHHHHGAAEQKL
ELISA on PS Plate (O.D. 490): 0.126 and 0.118 (2×) and 0.131 (2×) and 0.125 and 0.115 and 0.127 and 0.150 and 0.117 and 0.112 and 0.121 and 0.123 and 0.114 and 0.116 and 0.132
